From US20210230286A1 (published 2021) come the findings set out here.

This assay has as its target T1, PD-L1 protein (human, UniProt Q9NZQ7 19-238, limits assumed).
T1 construct: Plate-coated recombinant protein; also called human PD-L1 protein
The assay is described as follows: ELISA: PD-L1 coated at 2 ug/ml, FITC-labelled PPLC titrated, HRP anti-FITC detection, OD 410 nm. The protocol:
A 96-well ELISA plate was coated with 2μg/ml PD-L1 protein at 4° C. overnight. […] After incubation, HRP-conjugated anti-FITC antibody was added, incubated for 1 h, and then ABTS coloring solution was added. The OD value at 410 nm was measured using a M5 microplate reader, and GraphPad Prism 6 was used for plotting and analysis.

Where no end group is shown, it is not given here.

T1 sequence (Q9NZQ7 19-238 limits assumed): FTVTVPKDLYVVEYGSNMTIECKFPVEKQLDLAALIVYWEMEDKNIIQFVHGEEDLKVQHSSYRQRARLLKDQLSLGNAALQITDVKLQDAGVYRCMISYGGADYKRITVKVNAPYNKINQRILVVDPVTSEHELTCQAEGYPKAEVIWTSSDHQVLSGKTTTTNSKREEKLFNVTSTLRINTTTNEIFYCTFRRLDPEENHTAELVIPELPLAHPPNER

B1: PPLC peptide labeled with FITC (peptide)
peptide: VSVSHFQKVWVV
modifications: also: FITC label, attachment not given here
notes: Chemically synthesized peptide; The FITC-labelled form was used in the direct ELISA, flow cytometry and confocal assays; also called FITC-labeled PPLC
Turning to B1, binding was put at a Kd of 750 nM.
